{"source": "paper PMC2819845", "about": "(Biochemistry, 2009)", "proteins": {"B1": {"name": "phosphorylated Sts-2PGM (phospho-His366) (domain or fragment, mouse, UniProt Q3V3E1 354-624, looked up)", "chain": "ATISRRGILVVRHGERVDQVFGKSWLQQCTTADGKYYRPDLNFPRSLPRRSNGIKDFENDPPLSSCGIFQARLAGEALLDSGVRVTAVFASPALRCVQTAKHILEELKLEKKLKIRVEPGIFEWMKWEASKATLTFLTLEELKEANFNVDLDYRPALPRCSLMPAESYDQYVERCAVSMGQIINTCPQDMGITLIVSHSSALDSCTRPLLGLPPRECGDFAQLVRKIPSLGMCFCEENREDGKWDLVNPPVKTLTHGANSVFNWRNWISSN", "modifications": "phosphohistidine at 366 (on NE2; occupancy between 0.50 and 0.70, in three of the four monomers)"}}, "target": "the molecule itself", "assay": "crystal structure"}
{"protein": "B1", "values": [{"measurement": "binding result", "result": "binds"}]}
